Test results published in patent US12234463B2, “Engineered microorganisms with G3P → 3PG enzyme and/or fructose-1,6-bisphosphatase including those having synthetic or enhanced methylotrophy” (Genomatica, Inc., priority 2018, dated 2025).

B1: Bacillus methanolicus MGA3 GapN (NADP-dependent glyceraldehyde-3-phosphate dehydrogenase), cds 10663A (Bacillus methanolicus MGA3) (protein)
chain: MQVLEKDFKFLLNGEWSFSSSNQFINIYSPSTGEVVGRVPAMTKDEIDKAVAGARQAQKKWEKLAVSERAKILHAWADELVKMIDVIAPMIMNEVGKNISTARKEVTRTAEIIRYTAEEGVRIHGEFINGGSLDADSSIKTAIVEKKPLGVILAISPFNYPINLAATKIAPALIAGNAVVFKPATQGAISGLLMIQALENAGLPKGLVNTVTGKGSEIGDYIITHPFIDMISFTGGTGTGQNIARKASMIPLVLELGGKDPAIVLEDADLELAATEIVSGAFSYSGQRCTAIKRVLVLKDVAAPLIEKIKEKVEKLTVGRPEDDADITPLIDESSADFVQGLIDDALAKGASLITGNKREKNLIYPTVLSNVTKDMKVAWEEPFGPVLPCIIVDSVEEAIEIANESEFGLQASVFTSNIEKAFTIASSLDVGSVQINGRTERGPDHFPFSAVKNSGLGSQGIRQSIISMMRDKVTVINLKK
B2: Bacillus methanolicus PB1 GapN (NADP-dependent glyceraldehyde-3-phosphate dehydrogenase), cds 10662A (Bacillus methanolicus PB1) (protein)
chain: MQVLEKDHKFLLNGKWCYSSSNEFINIYSPSTGEIVGRVPAMTKDEIDKAVAGACQAQKNWEKLAVSDRAKILHAWADELVKMIDVIAPMIMNEVGKNISTAKREVIRTADIIRYTAEEGVRIHGEFINGGSLDADSSKKTAIVEKKPLGVILAISPFNYPINLAATKIAPALIAGNAVVFKPATQGAISGLLMIQALENAGLPEGLVNTVTGKGSEIGDYIITHPFIDMISFTGGTGTGQNIARKASMIPLVLELGGKDPAIVLEDADLELAAAEIVSGAFSYSGQRCTAIKRVIVLKDAAAPLIEKIKEKVEKLTVGKPEDDADITPLIDESSADFVQGLIDDALAKGATLITGNKREKNLIYPTVLSNVTKDMKVAWEEPFGPVLPCIIVDSAEEAIEIANESEFGLQASVFTTNIEKAFSIASSLDVGSVQINGRTERGPDHFPFSAVKNSGLGSQGIRQSIISMMRDKVTVINLKR
B3: E. coli GapA (NAD-dependent glyceraldehyde-3-phosphate dehydrogenase A; P0A9B2) (Escherichia coli K-12) (protein)
chain: MTIKVGINGFGRIGRIVFRAAQKRSDIEIVAINDLLDADYMAYMLKYDSTHGRFDGTVEVKDGHLIVNGKKIRVTAERDPANLKWDEVGVDVVAEATGLFLTDETARKHITAGAKKVVMTGPSKDNTPMFVKGANFDKYAGQDIVSNASCTTNCLAPLAKVINDNFGIIEGLMTTVHATTATQKTVDGPSHKDWRGGRGASQNIIPSSTGAAKAVGKVLPELNGKLTGMAFRVPTPNVSVVDLTVRLEKAATYEQIKAAVKAAAEGEMKGVLGYTEDDVVSTDFNGEVCTSVFDAKAGIALNDNFVKLVSWYDNETGYSNKVLDLIAHISK
notes: NAD-dependent; kinetic assay with G3P

Key:
[1] = substrate: NC(=O)c1ccc[n+]([C@@H]2O[C@H](COP(=O)(O)OP(=O)(O)OC[C@H]3O[C@@H](n4cnc5c(N)ncnc54)[C@H](OP(=O)(O)O)[C@@H]3O)[C@@H](O)[C@H]2O)c1; assay: purified protein, by the assay type; conditions: other: fixed G3P; NADP varied
[2] = substrate: O=C[C@H](O)COP(=O)(O)O; assay: GapN vs. GapA kinetic comparison: catalytic constants of GapA (Table 18); type: biochemical, E. coli; conditions: other: fixed NAD; G3P varied

Row | Protein | Km [1] | kcat [1] | kcat/Km [1] | Km [2] | kcat [2] | kcat/Km [2]
1 | B1 | 270 ± 40 µM | 8.2 s⁻¹ | 30000 M⁻¹ s⁻¹ |  |  | 
2 | B2 | 320 ± 70 µM | 9.7 s⁻¹ | 31000 M⁻¹ s⁻¹ |  |  | 
3 | B3 |  |  |  | 2000 ± 300 µM | 19 ± 1 s⁻¹ | 9500 M⁻¹ s⁻¹
